What was measured:
[1] = molecular target: mVDAC1 labelled with Alexa Fluor 532 C5-maleimide (UniProt Q60932); assay: MST
[2] = molecular target: mVDAC1 labelled with Alexa Fluor 532 C5-maleimide (UniProt Q60932 14-296, Alexa Fluor 532 C5-maleimide label); assay: MST
mVDAC1 labelled with Alexa Fluor 532 C5-maleimide (UniProt Q60932 14-296, Alexa Fluor 532 C5-maleimide label), sequence (Q60932 14-296): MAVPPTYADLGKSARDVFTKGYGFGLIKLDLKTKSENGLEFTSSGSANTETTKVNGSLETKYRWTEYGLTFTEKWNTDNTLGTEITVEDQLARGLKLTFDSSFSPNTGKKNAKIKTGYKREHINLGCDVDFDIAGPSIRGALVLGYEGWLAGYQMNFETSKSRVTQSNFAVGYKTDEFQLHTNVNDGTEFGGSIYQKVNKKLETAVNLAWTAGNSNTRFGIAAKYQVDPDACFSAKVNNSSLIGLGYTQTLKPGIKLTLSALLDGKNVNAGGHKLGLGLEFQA

mVDAC1 labelled with Alexa Fluor 532 C5-maleimide (UniProt Q60932), sequence (Q60932 14-296): as above

| Kd [1] | Kd [2] | Molecule |
| --- | --- | --- |
| 37.1 µM | – | caspase 8-cleaved recombinant BID (His-rtBID) (domain or fragment) |
| – | 1420 µM | recombinant full length His6-BID (natural protein, UniProt P70444 1-195, looked up) MDSEVSNGSGLGAEHITDLLVFGFLQSSGCTRQELEVLGRELPVQAYWEADLEDELQTDGSQASRSFNQGRIEPDSESQEEIIHNIARHLAQIGDEMDHNIQPTLVRQLAAQFMNGSLSEEDKRNCLAKALDEVKTAFPRDMENDKAMLIMTMLLAKKVASHAPSLLRDVFHTTVNFINQNLFSYVRNLVRNEMD |

Reference: paper doi:10.1101/2021.09.14.460262 (bioRxiv, 2021)
